In this test the target is 人IgG蛋白 (human). Put plainly: BLI (Octet RED96), human IgG loaded on the sensor, nanobody at 50 μg/mL in solution.

B1: 抗免疫球蛋白G的Fc段的纳米抗体 (编号为I4的阳性克隆) (VHH)
VHH: QVQLVESGGGLVQAGGSLRLSCAASGGTFYSYAMGWFRQAPGKKREFVAAIRWTSGITYYADSVKDRFTISRDNAKNTVYLQMTGLKPEDTAVYYCALGPDNSDSYDYWGQGTQVTVSS
Take B1: the Kd (usually the constant that tells how readily two partners part at equilibrium) amounted to 3.69 nM; the koff – broadly, the first-order rate constant of dissociation – is 0.00157 s⁻¹; the kon – broadly, the rate constant with which the complex forms – stood at 426000 M⁻¹ s⁻¹.

Values taken from CN109776681A.
